According to PMC2572730, “Structural Basis for the Recognition of Histone H4 by the Histone-Chaperone RbAp46” (Structure(London, England:1993), 2008):

System: GST-histone H4 1–48
Test: Pull-down of 35S-labeled RbAp46 mutants with GST-histone H4 1–48
Type: binding
Conditions: autoradiogram, 300 mM NaCl, 20 mM Tris pH 8.0, 5 mM DTT, 0.1% (v/v) NP-40
Description: Figure 2 Histone H4 Recognition by the RbAp46-Binding Pocket (A) Electrostatic surface potential of RbAp46 contoured and color coded at −91 kT (red) and +91 kT (blue). […] The histone H4 peptide is shown as a stick model. The histone H4-binding pocket in RbAp46 is mainly formed by the negatively charged PP loop (which terminates in Pro-362 and Pro-363) and a hydrophobic surface on the N-terminal α helix (helix 1). The interaction of histone H4 residues (Gln-27, Lys-31, Ile-34, Arg-35, Arg-36, Leu-37, Arg-39, and Arg-40) is shown. (B) Detailed view showing the interactions of the hydrophobic Ile-34 and Leu-37 histone H4 residues with Phe-29 and Leu-30 in helix 1 of RbAp46, as well as the positively charged Arg-36, Arg-39, and Arg-40 histone H4 residues with the backbone carbonyl groups in the PP loop and a cluster of acidic residues (Glu-356, Asp-357, and Asp-360) in RbAp46. […] In each experiment, the input lane contains 30% of the ^35S-labeled RbAp46 protein used in each of the pull-down assays. The experiments were carried out in 300 mM NaCl, 20 mM Tris (pH 8.0), 5 mM DTT, and 0.1% (v/v) NP-40.
Recombinant histone H4 and RbAp46 proteins were expressed and purified as described previously ([Verreault et al., 1998; Berger et al., 2004]). Detailed procedures for the generation of the RbAp46/histone H4 peptide and recombinant histone H4 complexes can be found in the Supplemental Data. […]

Molecule | Effect of RbAp46 mutation on interaction with histone H4
E356Q + D357N + E359Q + D360N: RbAp46 mutated in the charged PP loop (protein, UniProt Q16576 2-425, looked up, variant E356Q D357N E359Q D360N) Histone-binding protein RBBP7: ASKEMFEDTVEERVINEEYKIWKKNTPFLYDLVMTHALQWPSLTVQWLPEVTKPEGKDYALHWLVLGTHTSDEQNHLVVARVHIPNDDAQFDASHCDSDKGEFGGFGSVTGKIECEIKINHEGEVNRARYMPQNPHIIATKTPSSDVLVFDYTKHPAKPDPSGECNPDLRLRGHQKEGYGLSWNSNLSGHLLSASDDHTVCLWDINAGPKEGKIVDAKAIFTGHSAVVEDVAWHLLHESLFGSVADDQKLMIWDTRSNTTSKPSHLVDAHTAEVNCLSFNPYSEFILATGSADKTVALWDLRNLKLKLHTFESHKDEIFQVHWSPHNETILASSGTDRRLNVWDLSKIGEEQSAQNAQNGPPELLFIHGGHTAKISDFSWNPNEPWVICSVSEDNIMQIWQMAENIYNDEESDVTTSELEGQGS | disrupt the interaction with histone H4
L30Y: RbAp46 mutated in the hydrophobic surface of helix 1 (protein, 35S-labeled, RbAp46 mutated in the hydrophobic surface of helix 1) MASKEMFEDTVEERVINEEYKIWKKNTPFYYDLVMTHALQWPSLTVQWLPEVTKPEGKDYALHWLVLGTHTSDEQNHLVVARVHIPNDDAQFDASHCDSDKGEFGGFGSVTGKIECEIKINHEGEVNRARYMPQNPHIIATKTPSSDVLVFDYTKHPAKPDPSGECNPDLRLRGHQKEGYGLSWNSNLSGHLLSASDDHTVCLWDINAGPKEGKIVDAKAIFTGHSAVVEDVAWHLLHESLFGSVADDQKLMIWDTRSNTTSKPSHLVDAHTAEVNCLSFNPYSEFILATGSADKTVALWDLRNLKLKLHTFESHKDEIFQVHWSPHNETILASSGTDRRLNVWDLSKIGEEQSAEDAEDGPPELLFIHGGHTAKISDFSWNPNEPWVICSVSEDNIMQIWQMAENIYNDE | disrupt the interaction with histone H4
